According to the supplement of paper PMC9112550, “Optimization of the antimicrobial peptide Bac7 by deep mutational scanning” (BMC Biology, 2022):

Tested on: Escherichia coli TOP10
Assay: shrunken log2 fold change of peptide-encoding DNA abundance (4.5 h post-induction vs induction); higher = less antimicrobial activity (less host growth inhibition)
Settings: time post-induction: 4.5 h; library: site-saturation at positions 5, 18, 19, 20
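Note: peptides expressed intracellularly from a pBAD plasmid library in pooled LB shake-flask culture, induced with 0.3% L-arabinose, DNA abundance read by NGS, three biological replicates, DESeq2 with apeglm shrinkage.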

| Sequence | shrunken log2 fold change |
| --- | --- |
| RRIRKRPPRLPRPRPRPWVEPRP | 0.104 |
| RRIRCRPPRLPRPRPRPTYIPRP | -0.959 |
| RRIRARPPRLPRPRPRPRWVPRP | 0.267 |
| RRIRKRPPRLPRPRPRPKPFPRP | 0.611 |
| RRIRTRPPRLPRPRPRPFCAPRP | -0.00433 |
| RRIRHRPPRLPRPRPRPMIVPRP | 0.0837 |
| RRIRWRPPRLPRPRPRPRHIPRP | -0.0148 |
| RRIRCRPPRLPRPRPRPYTVPRP | -0.207 |
| RRIRERPPRLPRPRPRPQNVPRP | 0.16 |
| RRIRRRPPRLPRPRPRPKFWPRP | 0.278 |
| RRIRLRPPRLPRPRPRPSMQPRP | -0.205 |
| RRIRLRPPRLPRPRPRPKMTPRP | -0.181 |
| RRIRYRPPRLPRPRPRPDVEPRP | -0.00174 |
| RRIRIRPPRLPRPRPRPPMLPRP | -0.382 |
| RRIRKRPPRLPRPRPRPHVGPRP | 0.176 |
| RRIRFRPPRLPRPRPRPWGDPRP | 0.00532 |
| RRIRLRPPRLPRPRPRPIPVPRP | -0.0985 |
| RRIRTRPPRLPRPRPRPSIWPRP | 0.112 |
| RRIRDRPPRLPRPRPRPWDPPRP | 0.0959 |
| RRIRQRPPRLPRPRPRPHIFPRP | 0.0297 |
| RRIRGRPPRLPRPRPRPFETPRP | 2.8 |
| RRIRIRPPRLPRPRPRPTTQPRP | 0.102 |
| RRIRGRPPRLPRPRPRPFWEPRP | 0.577 |
| RRIRFRPPRLPRPRPRPCYWPRP | -0.0974 |
| RRIRTRPPRLPRPRPRPHDDPRP | -0.0991 |

| Sequence | shrunken log2 fold change |
| --- | --- |
| RRIRDRPPRLPRPRPRPDLQPRP | 1.54 |
| RRIRNRPPRLPRPRPRPTDWPRP | 0.328 |
| RRIRWRPPRLPRPRPRPPFWPRP | 0.836 |
| RRIRFRPPRLPRPRPRPWGNPRP | 0.117 |
| RRIRHRPPRLPRPRPRPKHDPRP | -0.363 |
| RRIRVRPPRLPRPRPRPPQHPRP | 0.186 |
| RRIRWRPPRLPRPRPRPSGWPRP | 0.422 |
| RRIRDRPPRLPRPRPRPLYFPRP | -0.601 |
| RRIRRRPPRLPRPRPRPFQCPRP | -0.00197 |
| RRIRFRPPRLPRPRPRPFATPRP | -0.0942 |
| RRIRQRPPRLPRPRPRPQGSPRP | 0.0165 |
| RRIRRRPPRLPRPRPRPDGKPRP | 0.0432 |
| RRIRCRPPRLPRPRPRPDVKPRP | -0.153 |
| RRIRPRPPRLPRPRPRPVGKPRP | -0.00576 |
| RRIRKRPPRLPRPRPRPLHSPRP | 0.0787 |
| RRIRGRPPRLPRPRPRPDPAPRP | 1.06 |
| RRIRKRPPRLPRPRPRPPCWPRP | 1.03 |
| RRIRDRPPRLPRPRPRPAFLPRP | 0.000425 |
| RRIRMRPPRLPRPRPRPQWDPRP | 0.232 |
| RRIRMRPPRLPRPRPRPQIHPRP | 0.149 |
| RRIRSRPPRLPRPRPRPCCQPRP | 0.0545 |
| RRIRCRPPRLPRPRPRPGFSPRP | -0.257 |
| RRIRSRPPRLPRPRPRPQEMPRP | 0.111 |
| RRIRGRPPRLPRPRPRPIIEPRP | 0.863 |
| RRIRGRPPRLPRPRPRPPNDPRP | 0.76 |

| Sequence | shrunken log2 fold change |
| --- | --- |
| RRIRHRPPRLPRPRPRPKRTPRP | 0.00166 |
| RRIRKRPPRLPRPRPRPRSSPRP | 0.263 |
| RRIRQRPPRLPRPRPRPRKHPRP | 0.165 |
| RRIRRRPPRLPRPRPRPHAPPRP | 0.353 |
| RRIRHRPPRLPRPRPRPHCFPRP | -0.312 |
| RRIRLRPPRLPRPRPRPLVGPRP | 0.246 |
| RRIRPRPPRLPRPRPRPMIPPRP | -0.124 |
| RRIRMRPPRLPRPRPRPGCPPRP | 0.521 |
| RRIRHRPPRLPRPRPRPISDPRP | -0.179 |
| RRIRVRPPRLPRPRPRPMQIPRP | -0.0185 |
| RRIRYRPPRLPRPRPRPEGQPRP | 0.0448 |
| RRIRHRPPRLPRPRPRPKCLPRP | -0.25 |
| RRIRERPPRLPRPRPRPHQMPRP | -0.0399 |
| RRIRSRPPRLPRPRPRPVDEPRP | -0.216 |
| RRIRLRPPRLPRPRPRPQPVPRP | 0.0205 |
| RRIRMRPPRLPRPRPRPYTEPRP | -0.245 |
| RRIRPRPPRLPRPRPRPDTNPRP | -0.239 |
| RRIRHRPPRLPRPRPRPWDVPRP | -0.0319 |
| RRIRCRPPRLPRPRPRPCILPRP | -1.1 |
| RRIRCRPPRLPRPRPRPGRFPRP | 0.0435 |
| RRIRERPPRLPRPRPRPRLHPRP | 0.047 |
| RRIRIRPPRLPRPRPRPPMGPRP | 0.0153 |
| RRIRERPPRLPRPRPRPIGWPRP | 0.0874 |
| RRIRHRPPRLPRPRPRPGHHPRP | -0.132 |
| RRIRFRPPRLPRPRPRPSLAPRP | 0.119 |

| Sequence | shrunken log2 fold change |
| --- | --- |
| RRIRLRPPRLPRPRPRPQYWPRP | -0.275 |
| RRIRNRPPRLPRPRPRPYEQPRP | -0.54 |
| RRIRNRPPRLPRPRPRPRILPRP | -0.0548 |
| RRIRTRPPRLPRPRPRPTVDPRP | -0.126 |
| RRIRQRPPRLPRPRPRPIYAPRP | -0.222 |
| RRIRVRPPRLPRPRPRPTEAPRP | 0.0175 |
| RRIRRRPPRLPRPRPRPSAPPRP | 0.418 |
| RRIRVRPPRLPRPRPRPHNDPRP | -0.318 |
| RRIRERPPRLPRPRPRPFCLPRP | -0.558 |
| RRIRARPPRLPRPRPRPVYGPRP | -0.235 |
| RRIRERPPRLPRPRPRPDMTPRP | 0.133 |
| RRIRIRPPRLPRPRPRPESGPRP | -0.135 |
| RRIRGRPPRLPRPRPRPQAKPRP | 1.34 |
| RRIRGRPPRLPRPRPRPYKHPRP | -0.463 |
| RRIRYRPPRLPRPRPRPNKMPRP | -1.19 |
| RRIRERPPRLPRPRPRPEGTPRP | -0.0267 |
| RRIRWRPPRLPRPRPRPRGAPRP | 0.586 |
| RRIRKRPPRLPRPRPRPVQDPRP | 0.295 |
| RRIRLRPPRLPRPRPRPSENPRP | 0.124 |
| RRIRNRPPRLPRPRPRPCQYPRP | -0.0135 |
| RRIRRRPPRLPRPRPRPPNQPRP | 0.337 |
| RRIRGRPPRLPRPRPRPATTPRP | 0.871 |
| RRIRIRPPRLPRPRPRPARHPRP | 0.0869 |
| RRIRMRPPRLPRPRPRPSRNPRP | 0.476 |
| RRIRDRPPRLPRPRPRPMTRPRP | -0.113 |

| Sequence | shrunken log2 fold change |
| --- | --- |
| RRIRERPPRLPRPRPRPLYMPRP | -0.748 |
| RRIRMRPPRLPRPRPRPAPSPRP | 1.28 |
| RRIRVRPPRLPRPRPRPINCPRP | -0.12 |
| RRIRYRPPRLPRPRPRPQVNPRP | -0.0568 |
| RRIRTRPPRLPRPRPRPNSPPRP | -0.221 |
| RRIRNRPPRLPRPRPRPCWEPRP | -0.0598 |
| RRIRTRPPRLPRPRPRPVEAPRP | 0.0918 |
| RRIRYRPPRLPRPRPRPQVHPRP | -0.0163 |
| RRIRHRPPRLPRPRPRPRSNPRP | -0.253 |
| RRIRHRPPRLPRPRPRPNADPRP | 0.031 |
| RRIRDRPPRLPRPRPRPKTWPRP | 0.434 |
| RRIRIRPPRLPRPRPRPGHIPRP | -0.327 |
| RRIRRRPPRLPRPRPRPWAYPRP | -0.0717 |
| RRIRIRPPRLPRPRPRPPKHPRP | 0.00437 |
| RRIRQRPPRLPRPRPRPFVPPRP | 0.0357 |
| RRIRARPPRLPRPRPRPPVMPRP | 0.395 |
| RRIRTRPPRLPRPRPRPAAWPRP | 0.754 |
| RRIRLRPPRLPRPRPRPADWPRP | 0.196 |
| RRIRARPPRLPRPRPRPMALPRP | 0.272 |
| RRIRGRPPRLPRPRPRPVSEPRP | 0.797 |
| RRIRWRPPRLPRPRPRPFNSPRP | -0.207 |
| RRIRRRPPRLPRPRPRPNYHPRP | -0.223 |
| RRIRYRPPRLPRPRPRPPWAPRP | 0.449 |
| RRIRTRPPRLPRPRPRPSCIPRP | -0.44 |
| RRIRERPPRLPRPRPRPDFGPRP | -0.0271 |
